Target: human SIRPα V1 expressed on cells (NOR mouse macrophages or CHO cells) (human) (UniProt P78324)
Experiment: cell-based binding assay (NOR mouse macrophages)
Set-up: unit not given beside the values
Conditions: Fc fusion

human SIRPα V1 expressed on cells (NOR mouse macrophages or CHO cells) (human), sequence (P78324 31-504): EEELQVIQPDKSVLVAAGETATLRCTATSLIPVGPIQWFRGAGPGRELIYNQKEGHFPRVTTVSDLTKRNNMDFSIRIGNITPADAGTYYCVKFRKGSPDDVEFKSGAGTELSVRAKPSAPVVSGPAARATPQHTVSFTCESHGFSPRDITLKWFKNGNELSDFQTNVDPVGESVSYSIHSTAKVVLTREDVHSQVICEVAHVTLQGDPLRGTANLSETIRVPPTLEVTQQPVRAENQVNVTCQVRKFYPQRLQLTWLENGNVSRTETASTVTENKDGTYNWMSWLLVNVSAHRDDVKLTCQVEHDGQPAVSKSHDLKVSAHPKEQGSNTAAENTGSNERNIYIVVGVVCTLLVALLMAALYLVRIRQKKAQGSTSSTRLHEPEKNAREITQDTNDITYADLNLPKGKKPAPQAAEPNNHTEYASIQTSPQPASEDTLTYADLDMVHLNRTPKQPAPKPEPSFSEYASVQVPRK
human CD47-Fc fusion protein, sequence (Q08722 19-141): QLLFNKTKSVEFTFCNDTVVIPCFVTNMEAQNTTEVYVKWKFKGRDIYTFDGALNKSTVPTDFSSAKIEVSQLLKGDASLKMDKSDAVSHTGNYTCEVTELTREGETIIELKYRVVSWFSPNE

Substance: human CD47-Fc fusion protein (from UniProt Q08722 19-141)
- Kd: 8.7 ?

Reference: patent publication US20140242095A1
